In publication PMC12135937 one finds Kd data, which are given here for 5 substances.

For experiment [1], the target named is DIP-β isoform G (Drosophila melanogaster). Description: SPR; Biacore T100, CM4 chip; DIPs immobilised by amine coupling (700-900 RU), monomeric Dpr analytes in 3-fold dilution series (0.012 to 9, 27 or 81 µM); 25 °C; 10 mM Tris-HCl pH 7.2, 150 mM NaCl, 1 mM EDTA, 1 mg/mL BSA, 0.01% Tween-20; equilibrium responses fit to a 1:1 model. On the technique in general: In SPR one partner is held on a chip, and binding of the other changes the refractive index at the surface.

In experiment [2] the target is DIP-β isoform C (Drosophila melanogaster). Described as above.
Chain of DIP-β isoform C (Drosophila melanogaster) (main, as listed by the source): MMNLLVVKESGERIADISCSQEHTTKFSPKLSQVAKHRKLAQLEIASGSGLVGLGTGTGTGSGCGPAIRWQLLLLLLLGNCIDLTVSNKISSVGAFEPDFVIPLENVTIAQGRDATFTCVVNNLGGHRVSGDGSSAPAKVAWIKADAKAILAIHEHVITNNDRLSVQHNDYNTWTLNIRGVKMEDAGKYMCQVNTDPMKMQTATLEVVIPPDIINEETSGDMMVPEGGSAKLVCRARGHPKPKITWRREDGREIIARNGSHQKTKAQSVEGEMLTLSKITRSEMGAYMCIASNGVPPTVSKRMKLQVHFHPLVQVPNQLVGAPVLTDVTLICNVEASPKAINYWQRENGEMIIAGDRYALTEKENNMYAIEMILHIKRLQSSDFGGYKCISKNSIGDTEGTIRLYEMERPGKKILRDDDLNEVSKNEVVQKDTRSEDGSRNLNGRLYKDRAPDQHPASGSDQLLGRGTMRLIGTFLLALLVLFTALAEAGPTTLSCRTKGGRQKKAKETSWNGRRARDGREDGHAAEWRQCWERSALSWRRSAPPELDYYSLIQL

Chain of DIP-β isoform G (Drosophila melanogaster) (main, as listed by the source): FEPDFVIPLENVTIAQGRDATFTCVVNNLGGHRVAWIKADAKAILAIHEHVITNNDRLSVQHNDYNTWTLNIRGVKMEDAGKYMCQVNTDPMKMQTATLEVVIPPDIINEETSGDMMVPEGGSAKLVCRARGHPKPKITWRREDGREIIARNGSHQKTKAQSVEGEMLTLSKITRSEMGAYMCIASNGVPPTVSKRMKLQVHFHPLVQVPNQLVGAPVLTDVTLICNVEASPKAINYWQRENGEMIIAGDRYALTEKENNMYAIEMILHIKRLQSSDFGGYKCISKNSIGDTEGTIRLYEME

For the substance Dpr8 (natural protein), the Kd was determined as 0.789 µM in experiment [1] and 1.32 µM in experiment [2].
For Dpr9 (natural protein) the same measures were 3.41 µM and 5.97 µM.
For Dpr11 (natural protein), the dissociation constant Kd in experiment [1] was 180 µM; in experiment [2], 106 µM.
Turning to Dpr16 (natural protein), the Kd in experiment [1] is 60 µM; in experiment [2] it was 180 µM.
Dpr17 (natural protein): the Kd was found to be 58.7 µM in experiment [1] and 176 µM in experiment [2].

As usually defined, the Kd is the equilibrium constant for the complex coming apart.
